{"source": "paper PMC7617965", "about": "“Interaction with AK2A links AIFM1 to cellular energy metabolism” (Molecular cell, 2025)", "molecules": {"B1": {"name": "MIA40 WT peptide (peptide)", "peptide": "SYSRQEGKDRIIFVTKEDHETPSSAELVA-NH2", "notes": "N-terminal region of MIA40 (CHCHD4); serine stands at position 4 where MIA40 has C4; also called MIA40 peptide; source: synthetic peptide"}, "B2": {"name": "AK2A WT peptide (peptide)", "peptide": "ATSKDLVMFI-NH2", "notes": "C-terminus of AK2 isoform A; serine stands where AK2A bears C232; also called AK2A peptide; source: synthetic peptide"}, "B3": {"name": "MIA40 C4S,C53S,C55S (natural protein, UniProt Q8N4Q1 1-142, looked up)", "chain": "MSYSRQEGKDRIIFVTKEDHETPSSAELVADDPNDPYEEHGLILPNGNINWNSPSLGGMASGPCGEQFKSAFSCFHYSTEEIKGSDCVDQFRAMQECMQKYPDLYPQEDEDEEEEREKKPAEQAEETAPIEATATKEEEGSS", "notes": "MIA40 (CHCHD4) with C4S, C53S and C55S; Only aa 2-20 are seen in the cryo-EM map; also called MIA40 SPS; purified MIA40; source: E. coli Rosetta2 (DE3), purified (Ni Sepharose)"}}, "key": {"[1]": {"molecular_target": "MIA40 (Homo sapiens) (UniProt Q8N4Q1)", "conditions": "cited from earlier work"}, "[2]": {"molecular_target": "endogenous AIFM1 (human (endogenous in HEK293)) (UniProt O95831)", "test": "SEC; native lysates of HEK293 cells (WT, AIFM1 KO, AIFM1 KO with AIFM1-HA, AK2 KO with AK2A or AK2B; cycloheximide 4 h in one panel) on HiLoad 16/600 Superdex 200; fractions analysed by immunoblot, in part after a thiol shift with mmPEG24"}, "[3]": {"molecular_target": "T1, AIFM1(103-613) (human, UniProt O95831 103-613)", "T1 construct": "Flavoprotein with FAD; forms a dimer in the presence of NADH, which was added in most assays; also called soluble AIFM1 lacking the transmembrane domain; source: E. coli Rosetta2 (DE3), purified (Ni Sepharose)", "test": "SEC; AIFM1 incubated with AK2A, MIA40 or the interaction site peptides with NADH; unbound NADH removed by gel filtration; samples at 0 and 7 h analysed by gel filtration, absorbance at 280 nm", "conditions": "both partners purified"}, "[4]": {"molecular_target": "T1, AIFM1(103-613)", "test": "cell-based or functional assay"}, "[5]": {"molecular_target": "T1, AIFM1(103-613)", "test": "SEC; purified proteins, AIFM1 to AK2 or MIA40 1:2 to 1:4, 100 mM NaCl, 20 mM Tris/Cl pH 7.4, with 0.1 mM NADH, 20 min, 4°C, Superdex 200", "conditions": "both partners purified"}}, "note": "No end group written: not given here."}
{"molecule": "AIFM1 (from UniProt O95831)", "values": [{"measurement": "Kd", "setting": "[1]", "result": 180, "unit": "nM"}]}
{"molecule": "adenylate kinase 2 (AK2), endogenous (from UniProt P54819 1-239) (enzyme)", "values": [{"measurement": "percent of AK2 in the fractions of the complex", "setting": "[2]", "result": 5, "unit": "%"}]}
{"molecule": "B1", "values": [{"measurement": "half-life (t1/2) of the complex after removal of excess NADH", "setting": "[3]", "result": "> 7", "unit": "h"}, {"measurement": "apparent kcat of the NADH:DCIP oxidoreductase activity of AIFM1 with the peptide (3.3 μM); AIFM1 alone 0.50 s^−1 (H2O)", "setting": "[4]", "result": 0.89, "unit": "s⁻¹"}]}
{"molecule": "B2", "values": [{"measurement": "half-life (t1/2) of the complex after removal of excess NADH", "setting": "[3]", "result": "> 7", "unit": "h"}, {"measurement": "apparent kcat of the NADH:DCIP oxidoreductase activity of AIFM1 with the peptide (3.3 μM); AIFM1 alone 0.37 s^−1 (DMSO)", "setting": "[4]", "result": 0.71, "unit": "s⁻¹"}]}
{"molecule": "B3", "values": [{"measurement": "stoichiometry N", "setting": "[5]", "result": 2, "unit": "per AIFM1 dimer"}, {"measurement": "half-life (t1/2) of the complex after removal of excess NADH", "setting": "[3]", "result": "> 7", "unit": "h"}]}
